The NTF2 design screens of Basanta et al. (2020)

Assay: protease stability score; higher = more stable; yeast display proteolysis, trypsin and chymotrypsin;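 also: log10 excess protease needed over predicted unfolded state with 0 meaning unfolded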

First: DEDQELRSLAEDAVRAMQSNNPDDFVNLFPENARINIGDKNIHGREEIKKHAQEVNTKVDRFSVTIEHIHVHNGKAEFTVDFVMNINGRTERRRASFRIDRIGDKVRIHSADVK
Second: DEDQHRRWQELMKAIETGDPERIKELMDPNAEFVVGDKHVRGREKYAREVHRELRTMRVEFRILSLRVQGDRLLADVEVVTHDDGKPTSHRFKLEVKAENGTIRVFRNQSVP
The protease stability score of the first is higher: 0.571 for the first, 0.155 for the second.

Compared with “DEDQLKVALKAIRAQNNNNPDELLKLLDENVRLQYGDKTVHGREEVKEMIKHWLSHWRWKIDVRRYSVHNGVARIEALVTINVNGKPQTFTVVIHVRAENGRIKEMHYHFDEEDQEKIRS”, “DEDQLRNIAHKLNEVWQNGDPDEMKKLLDPNVKFRYGDKTVQGMNEYVTILREMVKRIDHAHVRDFTAHNGRIDIDIQFDVNGRTVSAKVSYVVDNGKVKRAKFDPKNMKKLQS” is lower in protease stability score: 1.37 for the first, 0.036 for the second.

Compared with “DEDQMAETLFDEIRKIWETGSEEDAKKMMDPNAHVHVGDKEVTGREEIAKRLHDEAKKADHINLTLEDVEVKGDKAQLHVRFQLHVNGKRDERRIVFVFRNHNGRLIMVTASDS”, “DEDQMEDLKRKWEKNDWRRFARNADPNVRVEVGDRRYHGRTDALRAMKIIEDTADRIQIDRVKSTNGKVTVDLVLVVNGNKIRARFEAVVHNGQVKHFTMKFRDKDDKRRFNEAMS” is lower in protease stability score: 1.44 for the first, 0.582 for the second.

Going from “DEDQNRKMEHALRKNDWTRLAEQADKDVKVHIGDKVLHGREEVLKYLKRFQENVDHIEIKRMEATGNKVTVEYDVNFDGTTLDVTFKMVVQNGTVEHMTFDFRSEEQEHEAKKAYG” to “DEDQNTVFEEVKKAIRTGDEEMLKTLMDPNVRLEYGDTEIHGREEAVRQISTRHNQLHVDEQIKDIKAHNGKVDVDFEVHRSHNGDPQHRRASARADVSNGSVKELVVKYDK”, the protease stability score falls from 0.627 to 0.014.

First: DEDQQKEVEKMLQDRRTNNPERIRKMFDPNARVQVGDKTINGREDAKRYAEEERDQIRVEYKSINISVHNGRVQVDVRARFNHNGKPETRQFNLDASIHNGRIKEFQQRDDK
Second: DEDQQRKWEDWERHLRQNNEEKLVEMFDPNAKWVIGDKRWHGMEEAASKLATRVKNLHIEIRSMRVKVDGDTVEIDVLVTYTHNGQPSEKREILYIHAHNGEVKKVHFEDRE
The protease stability score of the first is lower: -0.163 for the first, 0.412 for the second.

Going from “DEDQRRKLEDLLRAYRTGDEKRIVEMADPNVEMHVGDHEVHGMEKIARKQVRTNQEARVDYEDWRLDFQGDKVNFEFDLRRDHNGEPETHKVDMTIVFKNGRIKSQSVRNTK” to “DEDQVEVMRELWRAYEDGADDQLKKLVDPNARFEVGDKHIEGREEYARDMQRQRKEIRVHYREISIENREGRLHIDYIYQRTHNGQPQTVRQVVEVDIKNGVVQRQRVQDVS”, the protease stability score rises from -0.135 to 0.474.

First: DEDQVLKVIEKALKAIQQGHREEAKKLGKPNVEVQAADQRDKGPDALLKMVEQVQKVGDKFEYKETRKKGGTVTTRVEVTFGGKTVEYEVNVQAEGGKVQKWEVRIDDDFIEQVKKS
Second: DEDQVQRVREMIKAWQHNDPEKLMQQVDPNVKARVGDKTLQGREQMSKDLDRRRKEARFVIRVQEVDKRENRVQVNVKMKVNHNGHPHSFSFILNVEVHGDHIHTIHIERDK
The protease stability score of the first is higher: 0.671 for the first, 0.356 for the second.

Going from “DEDQVRQANDNVIKAMKNGDPRKFKELFDPNARANYGDKEIHGMHTAMQRLVELLQQVDHIRIKDIKVENGHVHVDLVLEVNGRSVRFTITFRQSNGKVEELRMDPEDQKTLRR” to “DEDQVRRIIQDLRRNNFEKMVELMDEDVKIDVGNYDYHGREAAHEILDRIRRQIDHIEYKSVTAQGDKIDVKAVAIINGKEWTFRVEVDADNGRIHSMKIRFRSEKEEQDYQKEVQ”, the protease stability score rises from -0.186 to 1.11.

Going from “DEDQVRRVADKMFKMAVNGNKDEMKKLGKPNVEYKYLDKEYEGPDALKRVADKVKKIGAKVETQRREVKGDKVTAVFRYNDGDHTVQTTAEVQYEGDVVDRARVEITDEVKKVAHKG” to “DEDRAKSFMQAVVDNDPDKILKMMDENVRIEYGNKEIHGHEDLRKFWDKLKDQVDHYQVDRYSIHNGTVNVDAQMVVNGVRVRFTIVAELRNGKVTSVKYRVTNPRQERQLDELWG”, the protease stability score rises from -0.093 to 1.23.

Compared with “DEDRARRLMEKMFKIILNGNDEEARKMGAPDVEYQYADKTFHGEEAMKYIVKVVKRVGVKVRQEKHEVHGDTATAHFQYENGDTTVETQAHVQYEGDKAKKVEVKNSDEVRKLVDQG”, “DEDREAKKNLENMQKVLEKGDPDKMSELVDEDVRFVVGDKTFQGREDVRRRMETNVKRVDHIEVQIKHYEVKNGRARADAVFRVEVNGKETTRKFDVQVKVENGRFRVEQIRYK” is higher in protease stability score: 0.228 for the first, 0.265 for the second.

First: DEDREKEVVDILRDGNPDDAREMADENVTVRVGNKVIHGREEYHRFIKRMQDQADHRHIDSVHHRPGRVRIQFRAVVDGQKFSAQMTVKVENGRVKSAQLDATDESVKKILEHIFG
Second: DEDREKRFAKHVADVLRTGDSDRLQELADENVRMRIGDKTYKGRENFTKALEELRNRVDHIDIKSVKVHNGRISIDFVMRHNGREQTAVLIMHIHNGRIESQEVHSK
The protease stability score of the first is higher: 1.16 for the first, 0.618 for the second.

First: DEDREQEMLEKMVQIWEEGDEEKMVRLADPNVTVRVGDKNVHGRKHLREELQKERKQVDHFYVRHITIHNGTVNLDVEYNHNGQREQATVIAKVHDGRIKELSVHSS
Second: DEDRKAREFIHDEQRAFEQNNPDDIVRLADPNVRVNIGEHDVRGHEDFKKWVDELLEKYDQINFKVTSVSVRGDHIEATVMIQNQKNGEDDTHVVLITLKDHNGRLLIEMIQER
The protease stability score of the first is lower: -0.204 for the first, 0.315 for the second.

First: DEDRLRELVKKFVDAMRTNDEDRIREMMDKDVRVEVGDTVIKGHNEAKKWAKRLRERADHIHFDSVHVQGDRAEVDFQVRHNGKTDRNVLVLRMNNGRVQELRVHTK
Second: DEDRLREQATNFIEAMQTGDTKRVDEQIDKDAQLVVGEKKYEGREQISTFVKEMHHQFDHVRLQRVTVSGNKVLLDVVMDFNGKDLRINIVIHMNNGKISQVQVDYTNPEDAKTARG
The protease stability score of the first is higher: 1.81 for the first, 0.587 for the second.

Compared with “DEDRMKRLVRIFEHGDEDKLRKQADENATLKVGNHEIHGREEVQTFAQILKERVDHFHVRRVDLKGNSITALVRATVNGQSVEFKVIIVVQNGRIKKITIHATSEEQMKQLDKLFS”, “DEDRMRELMKVMMDAVRNGNQEQAYKVMDEGGEFHVGDKTVRGPEQVKEYVKEVQDWGNHVEYKETHYEGDTATVKTQAHLGDVTVDFEVHYVVKGNKLKRFEVRFNKEQIKEFKKS” is lower in protease stability score: 0.959 for the first, 0.593 for the second.

First: DEDRMRKLLEQFLTALLQGDPEKMMELADEDVRMTYGDKEYHGREQVRDWAKDYRDKVDHASVHSYEVHGDKAQAIVVANVNGRTLSYTVVVRFQDGRAKHIKFESS
Second: DEDRMTEAEKILKENNPDQMRDLFDENAKAEIGDNDLHGREHIVEEQRRYNEKVDHVQYHSVTFSNGKMRFDVRASVNGKKFRFQAEFHLDNGKIKHIKIDFRDEEDEKEFKRVVG
The protease stability score of the first is higher: 2.23 for the first, 0.66 for the second.

Going from “DEDRQQTLADELVKALEKGDFEKIEKLADPNVRVEIGDRHVRGREQASKELKKYTDRVDEVRIDSLEVQGEKVSADFRFNVDGHTIRLTAEITFHNGRIKMMRFHFTNEDQERRYKS” to “DEDRRAKELAERLDEALRTGDEERLQRLFDKDVRFDIGDKTIHGRTEAARQMVTHANRADHVHMKVTDLKRHGSRIVVVVHFRQNINGKKDSRDVKIEVKLEGDRIKVVRATYR”, the protease stability score falls from 1.02 to 0.888.

Going from “DEDRRAREWVETMQDIVENNNERDMKKLFDPNARVSVGDREYHGEDEIAHVLQREMENADNIHIEVKSIIVHGDKVTVDLTVSVQVNGKTETDRVRMVLKDKDGRIQVVSVQQT” to “DEDRTRRMLEKVFEYVVKGDVDHVRKHGKPNVRYEYADKKKEGEEVYKLIVKIVKKVGAEAKRREQEVKGDTMRANFQYNKGDKTVQTTAEAQYEGDKADKLRAELTDEVKKVVHQG”, the protease stability score falls from 0.597 to -0.152.

Compared with “DEDRVRKVAKEVFEMLKKGDVDKLKELGKEDVVFQFGDERVKGVEEYRRIMKEMQDQGVQHEVKKAQVKDDTAKMVTVVTYGNKDVQLTAEATYEGGRLKEARVENTEEYKKIAKKS”, “DEDRVRRHLEKAFKVIQNGNEEEAKKIGAPDVEYHYADKELEGEEAVIVAVRIVKKIGAEVKTQEEEVKGNEMRATFQYKKGDTTVQTKATVVYEGDKLKKARVELSDEVKKIIHQG” is lower in protease stability score: -0.084 for the first, -0.111 for the second.

Going from “DEDRYERLVKKAFEMIVKGNEEEVRKLLKPDVDYEYADHKFRGEEAAQFIVRLVQKVGAQAEVRRHKVEGNTATADFVYHDGDQTVQTRAEVTYEGDKLKQARVENTEEVKKLDHKG” to “DEDRYKKLMDKAFKLIMSGDEETMIKMLKPDVQYEYIDTKYEGEQVAKVIVRIVQKVGAEVRIKRKEHKGDKARADFDYHNGDQTVRTTAEVRYEGDKLKEARVKMTDEVKKVVQRG”, the protease stability score rises from 0.003 to 0.028.

Compared with “DEDRYRRKIEEVFKQVENGDEKKMKKDLKENVKYKYADKEKEGPEVAEHIVKVVKKIGAEVTRKEQEVKGDTLRAKFQYRKGDQTVRTEAEATYEGDQAKEVRVKMTDEVKKIVHQG”, “DEDSDRSVAQEFFEAVQRGNKSDVHRLADKDAKAEVGEKDIDGREELTKWVRELKRRVDHLDVKSITNKPGRVHFDAEYHFNGTTEKMVIVVQVHNGKVKEVTVQRG” is higher in protease stability score: 0.05 for the first, 0.908 for the second.

Compared with “DEDSEAHKLLRELEKVLSTGDEDKMRRLADPNASIRIGDTQIRGRTQIQDHVKRHKEHVDKVSIDVKEVTAQGNKANMKYVIRVQINGRTHQEQVRVDVDLQGDKFKIKQWTEG”, “DEDSEATEVAKTMHKNMKEGDPDKFMDQFDKDVRVQVGDKVYHGRDNALKWVREMLKRVDHVNFQVKRVRRQGDSVVLHLEVTLNQNGKHDKTTFVIHFTKQGDKFRADHLREQ” is higher in protease stability score: 0.055 for the first, 1.86 for the second.

First: DEDSEFEAARRFFKAVQTGDEDEAMRQMDEDASARVGDKTYHGREHARKAMHNFRQEVDHIDVTTFDKSNGRLDVNAILEHNGKTKSVKINIQASNGHVKSVNIQDK
Second: DEDSHKKLLEEMKDILNHGNFKNMLELADKNVRMQVGDKQYTGHSEFEDFLEHQRRQIDHLQVTDFKVSGENLVLTATANVNGKHVTIRFVVFFENGKMVRMEVDPSFQKQLES
The protease stability score of the first is lower: -0.103 for the first, 0.87 for the second.

First: DEDSQAHEIAQHFIELLKHNNEDDMKKYIDPNAKAQYGDKRVHGRNHVIRTFKEMRDKVDHISVEIKSIKANGEKISADMVVTFNVNGKNETVQYVLIFQVQGERVRVTHVKID
Second: DEDSQTKLAELFITALEEGDPELANKNVDENARADVGDKTLHGREDVSRMVHDLRRRADHIQVETLEVRNGRVDAIIVIDVNGKKVRFRMEIEIHNGRIKHLRMKSE
The protease stability score of the first is higher: 0.796 for the first, 0.653 for the second.

First: DEDTALTIAEQVMKAIQRGDEEEAEKLGKPDVEVQAFNERNKGQEMLKKAVEYVKKVGDQFEYKETRKEGNQVVTVVQVTRGGRTMEYKVDVKVEGGKVKLWRVEIPEEFAKVVEKS
Second: DEDTARKQVQIYKDNDPNQLVRMFDENARLKVGDQTVDGREELERWVKRLRTRVDRYSYKNVDIQGERVVIDMVMVVDGKQVEFVVEFVVEDGRIKNAKVQARNKDEETKLQEAIG
The protease stability score of the first is lower: 0.013 for the first, 1.25 for the second.

Going from “DEDTESNFRQFIRAWKSGNPNELRRLAPPDAHLKVGDKEWHGMEKAVTYLEREVKESTFDIKRWDVKVDGNSVTAHVKMVVHDNGQPNNYKVEMNANFHNGQIESYNVETRK” to “DEDTIKKLVKRMIDALVKNNTEEARRLLKPDVRFEAVDTEVRGPDQVATYYKKVKDLGVEIRVKEYKVEGNHAKVKYDMRHGGDQITVEAELEAKDSKVDRFRHEDDEKYQKTVKHG”, the protease stability score falls from 0.267 to 0.154.
